# Measured values as given in patent US20240317834A1, “COMPOSITIONS AND METHODS FOR NEUROLOGICAL DISEASES” (CODA BIOTHERAPEUTICS, INC., priority 2020, published 2024).
# Tested on: Lenti-X 293T cells
# Assay: YFP fluorescence quenching anion reporter plate reader assay of engineered receptors stimulated with acetylcholine or a non-native ligand
# Type: cell-based
# Excerpt: To screen these mutant LGICs for those having novel response profiles to ligands, an anion reporter assay was developed to assess the function of the LGICs in a high throughput format. In this assay, cells expressing a YFP reporter whose fluorescence is quenched in the presence of anion are transfected with DNA encoding the channel of interest. Upon exposure to ligand, channels that are activated will flux anion, resulting in a dose-dependent quench of the YFP that can be detected on a plate reader. The greater the quench signal (i.e., the more positive the value), the higher the ligand activity on the receptor is.
# Lenti-X 293T cells (LX293T, Clontech) were maintained in DMEM containing 10% FBS and 1% penicillin/streptomycin (Invitrogen). […] Two days before assay, cells were split at a density of 20,000 cells/well in a 96-well tissue culture plate coated with poly-d lysine (Thermo Scientific). The next day, the cells were transiently transfected with 0.1 μg of DNA per well using standard Fugene protocol (Promega). On the day of assay, cells were washed 2 times in 1× extracellular solution (1×ECS: 140 mM NaCl, 5 mM KCl, 1 mM MgCl2, 2 mM CaCl2), 10 mM HEPES, 10 mM glucose, pH 7.2, mOsms 300). After the last wash, 100 μL of 1×ECS was added to the wells and the plate was incubated at 37° C. for 30 min. While incubating the plate, the drugs were diluted to a 2× concentration in 1×ECS-NaI (same components as 1×ECS except the 140 mM NaCl was replaced by 140 mM NaI). The plates were then read on a Flexstation3 (Molecular Devices). Each well, 8 wells at a time, of the plate is read for 2 min using a Flexstation3 (Molecular Devices) as follows: 1) a baseline YFP fluorescence is read for 17 sec, 2) 100 μL of ligand is added, and 3) the changes in YFP fluorescence are then measured every 1.3 sec for 1 minute and 43 seconds. The percent quench is calculated from the average fluorescence of the last 10 seconds of the read divided by the baseline average of the first 15 seconds prior to the ligand addition.
# FIGS. 1A-1J provide heat maps of the percent quench of YFP fluorescence following stimulation by various doses of either acetylcholine or the non-native ligand as indicated in the Figures. CODA71 (SEQ ID NO: 33) was used as a control, and CODA75 (SEQ ID NO: 29, a non-responding chimeric engineered receptor) was used as the negative control. Quenching of the fluorescence signal, as indicated by blue shaded cells, indicate the level of engineered receptor activation by the non-native ligand at that concentration.
molecule,measurement,setting,value
"CODA238: engineered chimeric LGIC receptor, R101W in SEQ ID NO: 33 (protein, synthetic sequence of chimeric LGIC) MRCSPGGVWLALAASLLHVSLQGEFQRKLYKELVKNYNPLERPVANDSQPLTVYFSLSLLQIMDVDEKNQVLTTNIWLQMSWTDHYLQWNVSEYPGVKTVWFPDGQIWKPDILLYNSADERFDATFHTNVLVNSSGHCQYLPPGIFKSSCPMDLKNFPMDVQTCKLKFGSWSYGGWSLDLQMQEADISGYIPNGEWDLVGIPGKRSERFYECCKEPYPDVTFTVTMRRRMGYYLIQMYIPSLLIVILSWISFWINMDAAPARVGLGITTVLTMTTQSSGSRASLPKVSYVKAIDIWMAVCLLFVFSALLEYAAVNFVSRQHKELLRFRRKRRHHKSPMLNLFQEDEAGEGRFNFSAYGMGPACLQAKDGISVKGANNSNTTNPPPAPSKSPEEMRKLFIQRAKKIDKISRIGFPMAFLIFNMFYWIIYKIVRREDVHNQ",YFP fluorescence quenching using CNL001,"1 nM CNL001, first column",32.42%
same,YFP fluorescence quenching using CNL001,"1 nM CNL001, second column",54.768%
same,YFP fluorescence quenching using TC-5619/Bradanicline,3 nM brd,74.7%
same,YFP fluorescence quenching using Varenicline,"3 nM var, first column",17.896
same,YFP fluorescence quenching using Varenicline,"3 nM var, second column",12.564
same,YFP fluorescence quenching using CNL001,"10 nM CNL001, first column",75.149%
same,YFP fluorescence quenching using CNL001,"10 nM CNL001, second column",75.339%
same,YFP fluorescence quenching using TC-5619/Bradanicline,30 nM brd,76.78%
same,YFP fluorescence quenching using Facinicline,30 nM fac,−19.61
same,YFP fluorescence quenching using Varenicline,"30 nM var, first column",16.263
same,YFP fluorescence quenching using Varenicline,"30 nM var, second column",22.117
same,YFP fluorescence quenching using CNL001,"50 nM CNL001, first column",75.881%
same,YFP fluorescence quenching using CNL001,"50 nM CNL001, second column",77.844%
same,YFP fluorescence quenching using ABT-126,50 nM abt,−14.97%
same,YFP fluorescence quenching using CNL001,"100 nM CNL001, first column",78%
same,YFP fluorescence quenching using CNL001,"100 nM CNL001, second column",78.575%
same,YFP fluorescence quenching using CNL002,100 nM CNL002,2.95%
same,YFP fluorescence quenching using ABT-126,100 nM abt,−14.66%
same,YFP fluorescence quenching using AZD-0328,100 nM azd0328,22.94%
same,YFP fluorescence quenching using ABT-126,300 nM abt,−16.35%
same,YFP fluorescence quenching using AZD-0328,300 nM azd0328,75.38%
same,YFP fluorescence quenching using TC-5619/Bradanicline,300 nM brd,77.01%
same,YFP fluorescence quenching using Facinicline,300 nM fac,76.54
same,YFP fluorescence quenching using Varenicline,"300 nM var, first column",77.492
same,YFP fluorescence quenching using Varenicline,"300 nM var, second column",79.056
same,YFP fluorescence quenching using Varenicline,"500 nM var, first column",80.186
same,YFP fluorescence quenching using Varenicline,"500 nM var, second column",80.065
same,YFP fluorescence quenching using CNL001,"1 uM CNL001, first column",81.126%
same,YFP fluorescence quenching using CNL001,"1 uM CNL001, second column",79.482%
same,YFP fluorescence quenching using CNL002,1 uM CNL002,67.93%
same,YFP fluorescence quenching using ABT-126,1 uM abt,50.02%
same,YFP fluorescence quenching using TC-6987,1 uM tc6987,72.47
same,YFP fluorescence quenching using Varenicline,"1 uM var, first column",81.263
same,YFP fluorescence quenching using Varenicline,"1 uM var, second column",80.702
same,YFP fluorescence quenching using TC-6987,10 uM tc6987,72.04
same,YFP fluorescence quenching using CNL002,30 uM CNL002,73.02%
same,YFP fluorescence quenching using AZD-0328,30 uM azd0328,81.8%
same,YFP fluorescence quenching using Facinicline,30 uM fac,87.94
same,YFP fluorescence quenching using TC-6987,500 uM tc6987,76.56
same,"percent quench of YFP fluorescence, 10 uM ach",acetylcholine 10 uM,−16.58%
same,"percent quench of YFP fluorescence, 100 uM ach",acetylcholine 100 uM,75.18%
same,"percent quench of YFP fluorescence, 1 mM ach",acetylcholine 1 mM,78.99%
same,"percent quench of YFP fluorescence, 3 mM ach",acetylcholine 3 mM,75.74%
